Reference: US20220289850 (published 2022)
Residue numbers refer to the chain shown, from its start. Each block holds one binder with its values, some of them ahead of it.

What was measured:
human integrin avb3 = target: T1, human integrin avb3 (human, UniProt P06756); test: SPR
T1 chain 1: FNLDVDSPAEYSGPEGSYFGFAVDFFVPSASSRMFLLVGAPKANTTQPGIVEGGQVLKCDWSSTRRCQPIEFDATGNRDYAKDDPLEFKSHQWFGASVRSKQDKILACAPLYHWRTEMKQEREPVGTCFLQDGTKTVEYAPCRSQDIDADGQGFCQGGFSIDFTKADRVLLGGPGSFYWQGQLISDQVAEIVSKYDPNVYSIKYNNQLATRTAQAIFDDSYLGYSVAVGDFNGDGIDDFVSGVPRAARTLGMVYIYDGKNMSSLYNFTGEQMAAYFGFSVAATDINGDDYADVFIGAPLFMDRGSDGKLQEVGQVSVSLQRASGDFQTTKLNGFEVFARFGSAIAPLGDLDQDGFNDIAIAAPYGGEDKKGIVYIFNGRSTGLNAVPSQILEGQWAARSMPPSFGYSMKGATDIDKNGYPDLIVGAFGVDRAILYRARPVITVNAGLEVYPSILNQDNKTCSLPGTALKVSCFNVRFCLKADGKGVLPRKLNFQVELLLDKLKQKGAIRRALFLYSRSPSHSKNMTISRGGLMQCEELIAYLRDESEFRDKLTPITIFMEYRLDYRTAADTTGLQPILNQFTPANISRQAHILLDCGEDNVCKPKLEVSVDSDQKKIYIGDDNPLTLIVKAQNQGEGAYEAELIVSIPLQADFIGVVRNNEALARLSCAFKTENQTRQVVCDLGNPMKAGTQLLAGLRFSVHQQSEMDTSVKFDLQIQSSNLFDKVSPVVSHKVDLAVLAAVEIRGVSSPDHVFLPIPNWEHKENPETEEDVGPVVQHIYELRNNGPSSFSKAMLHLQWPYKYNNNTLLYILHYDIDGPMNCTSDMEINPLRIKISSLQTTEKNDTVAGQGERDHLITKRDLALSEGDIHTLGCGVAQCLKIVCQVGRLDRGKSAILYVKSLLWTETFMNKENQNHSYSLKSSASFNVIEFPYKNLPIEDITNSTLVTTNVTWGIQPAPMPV
T1 chain 2: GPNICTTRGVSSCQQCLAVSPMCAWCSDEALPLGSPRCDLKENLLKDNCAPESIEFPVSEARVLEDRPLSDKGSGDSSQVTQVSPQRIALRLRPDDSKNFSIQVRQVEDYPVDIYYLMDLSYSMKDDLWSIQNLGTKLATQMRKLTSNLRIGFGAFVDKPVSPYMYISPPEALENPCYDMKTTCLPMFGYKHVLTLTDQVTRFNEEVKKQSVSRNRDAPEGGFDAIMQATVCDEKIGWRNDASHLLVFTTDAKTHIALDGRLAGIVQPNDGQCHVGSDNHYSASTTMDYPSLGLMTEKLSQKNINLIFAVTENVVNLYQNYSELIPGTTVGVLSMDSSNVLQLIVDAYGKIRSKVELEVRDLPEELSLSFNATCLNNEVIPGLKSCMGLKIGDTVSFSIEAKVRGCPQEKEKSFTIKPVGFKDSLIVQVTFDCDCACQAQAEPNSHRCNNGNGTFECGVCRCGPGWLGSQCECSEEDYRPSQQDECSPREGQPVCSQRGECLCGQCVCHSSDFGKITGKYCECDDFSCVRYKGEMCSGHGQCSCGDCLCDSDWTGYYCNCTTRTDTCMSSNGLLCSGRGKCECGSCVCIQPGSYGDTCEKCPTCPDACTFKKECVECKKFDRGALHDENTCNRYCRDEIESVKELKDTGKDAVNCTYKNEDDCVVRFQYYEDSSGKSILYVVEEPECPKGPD

human integrin avb6 [1] = target: T2, human integrin avb6 (human, UniProt P06756); test: ELISA
T2 chain 1: T1 chain 1
T2 chain 2: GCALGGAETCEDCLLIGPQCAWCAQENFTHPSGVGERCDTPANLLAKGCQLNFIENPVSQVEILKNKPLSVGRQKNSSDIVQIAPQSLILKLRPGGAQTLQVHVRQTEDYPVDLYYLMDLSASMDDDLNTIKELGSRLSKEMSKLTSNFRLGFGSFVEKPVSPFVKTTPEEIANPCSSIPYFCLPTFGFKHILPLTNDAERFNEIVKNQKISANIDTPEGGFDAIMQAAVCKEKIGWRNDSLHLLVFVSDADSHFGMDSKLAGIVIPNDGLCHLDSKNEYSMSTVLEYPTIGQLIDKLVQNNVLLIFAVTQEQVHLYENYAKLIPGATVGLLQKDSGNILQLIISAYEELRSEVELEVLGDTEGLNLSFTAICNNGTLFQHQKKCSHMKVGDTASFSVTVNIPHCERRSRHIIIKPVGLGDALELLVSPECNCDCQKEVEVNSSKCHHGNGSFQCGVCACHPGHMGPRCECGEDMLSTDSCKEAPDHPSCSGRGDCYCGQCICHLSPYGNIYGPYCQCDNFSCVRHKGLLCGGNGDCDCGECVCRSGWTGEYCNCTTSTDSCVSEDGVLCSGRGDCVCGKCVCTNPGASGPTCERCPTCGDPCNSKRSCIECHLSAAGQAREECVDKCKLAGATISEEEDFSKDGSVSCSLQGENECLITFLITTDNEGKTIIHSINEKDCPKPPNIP

human integrin avb8 = target: T3, human integrin avb8 (human); test: SPR
T3 chain 1: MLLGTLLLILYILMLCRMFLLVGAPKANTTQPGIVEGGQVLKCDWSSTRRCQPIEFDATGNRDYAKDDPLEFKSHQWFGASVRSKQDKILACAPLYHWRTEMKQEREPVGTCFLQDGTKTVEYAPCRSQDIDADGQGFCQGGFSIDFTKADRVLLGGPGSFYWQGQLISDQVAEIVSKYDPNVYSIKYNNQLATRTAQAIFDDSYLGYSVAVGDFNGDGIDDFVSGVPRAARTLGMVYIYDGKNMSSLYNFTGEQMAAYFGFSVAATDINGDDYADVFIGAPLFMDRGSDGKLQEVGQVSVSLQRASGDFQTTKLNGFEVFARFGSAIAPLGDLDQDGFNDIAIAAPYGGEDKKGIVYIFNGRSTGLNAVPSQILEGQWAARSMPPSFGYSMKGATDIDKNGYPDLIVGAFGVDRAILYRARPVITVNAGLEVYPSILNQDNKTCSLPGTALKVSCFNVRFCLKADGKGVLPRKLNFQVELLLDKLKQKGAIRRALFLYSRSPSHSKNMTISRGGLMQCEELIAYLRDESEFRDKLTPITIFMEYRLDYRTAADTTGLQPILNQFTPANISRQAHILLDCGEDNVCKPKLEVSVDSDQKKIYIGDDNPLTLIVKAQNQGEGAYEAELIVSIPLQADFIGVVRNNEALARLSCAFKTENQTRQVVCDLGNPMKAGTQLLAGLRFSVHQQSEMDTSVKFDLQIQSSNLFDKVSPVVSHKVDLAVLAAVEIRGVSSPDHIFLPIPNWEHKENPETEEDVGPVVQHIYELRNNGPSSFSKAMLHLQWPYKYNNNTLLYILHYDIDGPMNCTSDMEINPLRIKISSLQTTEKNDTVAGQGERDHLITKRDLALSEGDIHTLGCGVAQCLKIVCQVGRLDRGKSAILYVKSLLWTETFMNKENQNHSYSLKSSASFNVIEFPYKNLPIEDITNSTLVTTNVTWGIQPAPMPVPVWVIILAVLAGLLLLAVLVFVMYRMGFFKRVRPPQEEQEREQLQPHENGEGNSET
T3 chain 2: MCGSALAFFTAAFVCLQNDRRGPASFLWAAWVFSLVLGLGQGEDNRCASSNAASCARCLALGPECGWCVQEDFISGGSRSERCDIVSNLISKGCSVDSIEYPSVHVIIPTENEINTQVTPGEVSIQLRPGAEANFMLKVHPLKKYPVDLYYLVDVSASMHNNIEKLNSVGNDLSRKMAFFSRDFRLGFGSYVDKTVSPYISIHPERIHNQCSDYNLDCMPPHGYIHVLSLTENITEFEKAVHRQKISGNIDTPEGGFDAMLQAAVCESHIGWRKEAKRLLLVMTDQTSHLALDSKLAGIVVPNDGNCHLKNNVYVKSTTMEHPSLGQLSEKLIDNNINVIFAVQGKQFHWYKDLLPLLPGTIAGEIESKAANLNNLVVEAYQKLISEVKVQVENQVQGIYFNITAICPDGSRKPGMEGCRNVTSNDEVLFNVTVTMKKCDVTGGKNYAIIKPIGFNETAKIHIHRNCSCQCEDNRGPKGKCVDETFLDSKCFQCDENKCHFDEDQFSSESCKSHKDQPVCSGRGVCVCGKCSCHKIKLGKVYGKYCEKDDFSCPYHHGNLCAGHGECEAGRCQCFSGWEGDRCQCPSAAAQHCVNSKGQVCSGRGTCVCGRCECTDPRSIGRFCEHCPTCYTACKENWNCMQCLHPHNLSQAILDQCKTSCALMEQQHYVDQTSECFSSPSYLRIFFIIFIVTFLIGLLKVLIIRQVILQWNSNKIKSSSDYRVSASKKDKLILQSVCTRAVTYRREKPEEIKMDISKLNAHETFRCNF

human integrin avb6 [2] = target: T2, human integrin avb6; test: SPR

B2: ADWA11 VH03/VK02 Fab (antibody, V domains shown)
VH: EVQLVESGGGLVQPGGSLRLSCAASGFNIKDYYMNWVRQAPGKGLEWVGWIDPDNGNTIYDPKFQGRFTISADNAKNSAYLQMNSLRAEDTAVYYCARRLLMDYWGQGTLVTVSS
VL: DIQMTQSPSSLSASVGDRVTITCRSTKSLLHFNGNTYLFWFQQKPGKAPKRLIYYMSNLASGVPSRFSGSGSGTDFTLTISSLQPEDFATYYCMQSLEYPFTFGQGTKVEIK
- Kd (human integrin avb8): 0.37 nM

B3: ADWA11 VH01/VK01 Fab (antibody, V domains shown)
VH: B2 VH with G49A, A72R, A79L
VL: B2 VL with F41Y
- Kd (human integrin avb8): 6.86 nM

B4: ADWA11 VH02/VK01 Fab (antibody, V domains shown)
VH: B2 VH with G49A, A79L
VL: B2 VL with F41Y
- Kd (human integrin avb8): 1.89 nM

B6: ADWA11 VH03/VK01 Fab (antibody, V domains shown)
VH: B2 VH
VL: B2 VL with F41Y
- Kd (human integrin avb8): < 0.1 nM

Results, then the binder that gave them:

- binding result (human integrin avb3): no binding
- binding result (human integrin avb6 [1]): no binding
B1: Mouse hybridoma ADWA-11 IgG (antibody, V domains shown)
VH: EVQLQQSGAELVRPGAFVKLSCKASGFNIKDYYMNWVLQRPEQGLEWIGWIDPDNGNTIYDPKFQGKASITADTSSNTAYLQLSSLTSEDTAVYYCARRLLMDYWGQGTSVTVSS
VL: DIVMTQAAPSVPVTPGESVSISCRSTKSLLHFNGNTYLFWFLQRPGQSPQRLIYYMSNLASGVPDRFSGRGSGTDFTLRISRVEAEDVGVYYCMQSLEYPFTFGTGTKLEIK

- binding result (human integrin avb6 [2]): no binding
- binding result (human integrin avb3): no binding
B5: ADWA11 VH05-2/VK01 antibody (antibody, V domains shown)
VH: B2 VH with N74T, A75S
VL: B2 VL with F41Y
